# Changes are numbered by the printed parent chain. Names and notes keep the numbering of the source.
# B1: Syno RING synoviolin protein (GST moiety removed by thrombin) (protein)
# chain: IRNMNTLYPDATPEELQAMDNVCIICREEMVTGAKRLPCNHIFHTSCLRSWFQRQQTCPTCRMDVLRASLPAQSPPPPEPADQGPPPAPHPPPLLPQPPNFPQGLLPPFPPGMFPLWPPMGPFPPVPPPPSSGEAVAPPSTSAAALSRPSGA
# B2: Syno dTM synoviolin protein (GST moiety removed by thrombin) (protein)
# chain: KVHTFPLFAIRPMYLAMRQFKKAVTDAIMSRRAIRNMNTLYPDATPEELQAMDNVCIICREEMVTGAKRLPCNHIFHTSCLRSWFQRQQTCPTCRMDVLRASLPAQSPPPPEPADQGPPPAPHPPPLLPQPPNFPQGLLPPFPPGMFPLWPPMGPFPPVPPPPSSGEAVAPPSTSAAALSRPSGAATTTAAGTSATAASATASGPGSGSAPEAGPAPGFPFPPPWMGMPLPPPFAFPPMPVPPAGFAGLTPEELRALEGHERQHLEARLQSLRNIHTLLDAAMLQINQYLTVLASLGPPRPATSVNSTEGTATTVVAAASSTSIPSSEATTPTPGASPPAPEMERPPAPESVGTEEMPEDGEPDAAELRRRRLQKLESPVAH
# B3: Syno dTM (C307S) with 307th cysteine to serine substitution (GST moiety removed by thrombin) (protein)
# chain: B2 chain with C72S
# B4: Syno dTM (dRING) with 291st to 329th amino acid deletion (GST moiety removed by thrombin) (protein)
# chain: KVHTFPLFAIRPMYLAMRQFKKAVTDAIMSRRAIRNMNTLYPDATPEELQAMDNVRMDVLRASLPAQSPPPPEPADQGPPPAPHPPPLLPQPPNFPQGLLPPFPPGMFPLWPPMGPFPPVPPPPSSGEAVAPPSTSAAALSRPSGAATTTAAGTSATAASATASGPGSGSAPEAGPAPGFPFPPPWMGMPLPPPFAFPPMPVPPAGFAGLTPEELRALEGHERQHLEARLQSLRNIHTLLDAAMLQINQYLTVLASLGPPRPATSVNSTEGTATTVVAAASSTSIPSSEATTPTPGASPPAPEMERPPAPESVGTEEMPEDGEPDAAELRRRRLQKLESPVAH
# Molecular target: GST-fused P4HA1 protein (whole region of P4HA1)
# Sequence (chain, as listed by the source): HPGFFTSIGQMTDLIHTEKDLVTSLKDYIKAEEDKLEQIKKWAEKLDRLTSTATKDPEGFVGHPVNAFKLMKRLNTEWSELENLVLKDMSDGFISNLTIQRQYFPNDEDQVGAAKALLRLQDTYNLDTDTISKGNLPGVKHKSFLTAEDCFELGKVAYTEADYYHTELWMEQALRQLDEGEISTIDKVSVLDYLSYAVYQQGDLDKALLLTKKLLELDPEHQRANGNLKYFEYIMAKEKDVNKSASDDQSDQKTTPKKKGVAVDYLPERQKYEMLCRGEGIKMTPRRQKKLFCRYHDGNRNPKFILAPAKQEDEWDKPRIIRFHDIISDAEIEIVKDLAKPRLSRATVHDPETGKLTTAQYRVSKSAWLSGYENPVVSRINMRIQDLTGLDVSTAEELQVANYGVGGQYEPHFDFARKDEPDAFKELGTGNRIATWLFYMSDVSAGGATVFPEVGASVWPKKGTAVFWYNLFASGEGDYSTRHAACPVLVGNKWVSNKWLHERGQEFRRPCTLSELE
row,Protein,"in vitro ubiquitination (32P-labeled ubiquitin, E1, E2 UbCH5c, ATP; SDS-PAGE autoradiography)"
1,B1,P4HA1 was ubiquitinated by Syno dTM and Syno RING
2,B2,P4HA1 was ubiquitinated by Syno dTM and Syno RING
3,B3,P4HA1 was not ubiquitinated by Syno dTM (C307S) and Syno dTM (dRING)
4,B4,P4HA1 was not ubiquitinated by Syno dTM (C307S) and Syno dTM (dRING)
